Target: 3BP2 Tankyrase targeting peptide
Assay: fluorescence polarisation

Kd: 500 ± 100 nM
B1: recombinant N-terminal region of TNKS2 containing all five ARCs (domain or fragment)
chain: AVEPAARELFEACRNGDVERVKRLVTPEKVNSRDTAGRKSTPLHFAAGFGRKDVVEYLLQNGANVQARDDGGLIPLHNACSFGHAEVVNLLLRHGADPNARDNWNYTPLHEAAIKGKIDVCIVLLQHGAEPTIRNTDGRTALDLADPSAKAVLTGEYKKDELLESARSGNEEKMMALLTPLNVNCHASDGRKSTPLHLAAGYNRVKIVQLLLQHGADVHAKDKGDLVPLHNACSYGHYEVTELLVKHGACVNAMDLWQFTPLHEAASKNRVEVCSLLLSYGADPTLLNCHNKSAIDLAPTPQLKERLAYEFKGHSLLQAAREADVTRIKKHLSLEMVNFKHPQTHETALHCAAASPYPKRKQICELLLRKGANINEKTKEFLTPLHVASEKAHNDVVEVVVKHEAKVNALDNLGQTSLHRAAYCGHLQTCRLLLSYGCDPNIISLQGFTALQMGNENVQQLLQEGISLGNSEADRQLLEAAKAGDVETVKKLCTVQSVNCRDIEGRQSTPLHFAAGYNRVSVVEYLLQHGADVHAKDKGGLVPLHNACSYGHYEVAELLVKHGAVVNVADLWKFTPLHEAAAKGKYEICKLLLQHGADPTKKNRDGNTPLDLVKDGDTDIQDLLRGDAALLDAAKKGCLARVKKLSSPDNVNCRDTQGRHSTPLHLAAGYNNLEVAEYLLQHGADVNAQDKGGLIPLHNAASYGHVDVAALLIKYNACVNATDKWAFTPLHEAAQKGRTQLCALLLAHGADPTLKNQEGQTPLDLVSADDVSALLTAAMPP
